Earlier results, collected in PMC2871139.
pKd: −log10 of the molar value. Read-outs that look alike come from different tables or passages of the source. Each block holds one substance with its values, some of them ahead of it.

Tests used:
A1 [1] = target: A1 (UniProt Q07440)
A1 [2] = target: A1 (UniProt Q07440); remark: listed apart in the source
A1 [3] = target: A1 (UniProt Q07440); remark: listed apart in the source
A1 [4] = target: A1 (UniProt Q07440); remark: listed apart in the source

Sequence of UniProt Q07440 (Q07440 whole entry): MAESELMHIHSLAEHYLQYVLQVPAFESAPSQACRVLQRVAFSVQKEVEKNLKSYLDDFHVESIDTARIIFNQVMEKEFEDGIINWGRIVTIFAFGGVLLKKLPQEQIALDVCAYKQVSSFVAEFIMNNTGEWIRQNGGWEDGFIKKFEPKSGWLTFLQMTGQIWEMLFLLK

pKd (A1 [1]): > 8.52
Substance: Bak BH3 (from UniProt O08734)

pKd (A1 [2]): > 8.52
Substance: Puma BH3 (from UniProt Q9BXH1)

pKd (A1 [3]): 6.74
Substance: Bmf BH3 (from UniProt Q91ZE9)

pKd (A1 [4]): > 8.52
Substance: Bid BH3 (from UniProt P70444)
